Laboratory results: patent US20050100965A1

How the values were obtained:
[1] = biological target: (4C/A)-huIL-18 (human) (UniProt Q14116); assay: Biacore, (4C/A)-HuIL-18
[2] = biological target: (4C/A)-huIL-18 (human) (UniProt Q14116); assay: cell-based or functional assay
[3] = biological target: natural human IL-18 (human) (UniProt Q14116); assay: cell-based or functional assay
[4] = biological target: NEM-huIL-18 (human) (UniProt Q14116); assay: Biacore
[5] = biological target: (4C/A)-huIL-18 (human) (UniProt Q14116); assay: Biacore
[6] = biological target: 125I labeled rhuIL-18 (human) (UniProt Q14116); assay: Receptor Binding Assay: inhibition of 125I-rhu-IL-18 binding to IL-18Rαβ on TNF-treated KG-1 cells

Kd [1]: 0.19 nM | koff [1]: 2.6e-05 s⁻¹ | kon [1]: 140000 M⁻¹ s⁻¹ | KG-1, Neutralization Potency in vitro (IC50, nM) [2]: 0.03 nM | WBA, Neutralization Potency in vitro (IC50, nM) [3]: 5.7 nM | Kd [4]: 0.098 nM | Kd [5]: 0.135 nM | IC50 [6]: 1 nM
Substance: IL-18BP-Fc (from UniProt O95998 31-194) (Fc fusion)
